Tests used:
[1] = biological target: Lymphocyte Function-associated Antigen-1 (LFA-1), on cells (human) (UniProt P20701)
[2] = biological target: Lymphocyte Function-associated Antigen-1 (LFA-1), on cells (human) (UniProt P20701); remark: listed apart in the source
[3] = biological target: ICAM-1 N269QSQI/IQAEQ (human) (UniProt P05362); assay: 35S-HRV14 on COS cells
[4] = biological target: ICAM-1 S5/T (human) (UniProt P05362); assay: 35S-HRV14 on COS cells
[5] = biological target: ICAM-1 A115N/SV (printed A155N/SV at paragraph 410) (human) (UniProt P05362); assay: 35S-HRV14 on COS cells
[6] = biological target: ICAM-1 Y476/TAG (human) (UniProt P05362)
[7] = biological target: Intercellular Adhesion Molecule-1 (ICAM-1), wild type, on the cell surface (human) (UniProt P05362)
[8] = biological target: Intercellular Adhesion Molecule-1 (ICAM-1), wild type, on the cell surface (human) (UniProt P05362); remark: listed apart in the source
[9] = biological target: purified ICAM-1 (human) (UniProt P05362)

anti-LFA-1 antibody R3.1
% inhibition of the mixed lymphocyte reaction [1]: 93 % inhibition

anti-LFA-1 monoclonal antibody TS1/18
binding of JY cells to ICAM-1 in plastic-bound vesicles [2]: 96 % inhibition

human rhinovirus 14 (HRV14) (from UniProt P03303)
HRV Binding % (% of wild type) [3]: 108
HRV Binding % (% of wild type) [4]: 125
HRV Binding % (% of wild type) [5]: 12

monoclonal antibody RR1/1
% of cells expressing ICAM-1 that bind LFA-1 in the presence of RR1/1 [6]: 0%
% of cells expressing ICAM-1 that bind LFA-1 in the presence of RR1/1 [7]: 0%
% inhibition of PMA-stimulated PHA-lymphoblast aggregation [8]: 51 % inhibition
binding of JY cells to ICAM-1 in plastic-bound vesicles [9]: 97 % inhibition
